The results in this text go back to article PMC4201288.

The series concerns the target T1, PaFAN1 (Pseudomonas aeruginosa, UniProt Q9I2N0 1-559).
T1 sequence: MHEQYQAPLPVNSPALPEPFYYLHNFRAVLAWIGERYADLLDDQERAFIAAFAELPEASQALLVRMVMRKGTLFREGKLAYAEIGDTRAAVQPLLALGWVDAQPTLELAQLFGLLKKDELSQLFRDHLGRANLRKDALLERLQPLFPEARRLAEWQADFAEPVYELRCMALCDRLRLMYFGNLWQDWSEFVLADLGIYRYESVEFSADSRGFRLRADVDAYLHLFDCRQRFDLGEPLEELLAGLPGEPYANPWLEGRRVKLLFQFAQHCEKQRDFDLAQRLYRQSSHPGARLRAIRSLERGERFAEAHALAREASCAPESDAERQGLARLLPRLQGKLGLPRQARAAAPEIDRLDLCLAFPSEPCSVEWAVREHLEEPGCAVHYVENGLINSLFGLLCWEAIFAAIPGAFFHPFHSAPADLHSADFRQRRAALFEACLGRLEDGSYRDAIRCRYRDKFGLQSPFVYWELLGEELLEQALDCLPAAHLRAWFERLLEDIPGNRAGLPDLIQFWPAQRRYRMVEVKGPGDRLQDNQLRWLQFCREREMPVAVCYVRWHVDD
In words: crystal structure.

B1: 5' flap DNA, 22-base template, 4-nt 5' flap (crystal I) (structured_DNA)
DNA 1: GAATGTGTGTCTCAATCCCAAC
DNA 2: GTTGGGATTG
DNA 3: AACCAGACACACATTC
With B1, the binding result is listed as “binds”.
